We go through one molecule from paper doi:10.1101/2025.03.24.645063 (2025).

This experiment addresses CRBN/DDB1 complex (human | , UniProt Q96SW2 1-442; Q16531 1-1140, CoraFluor-1 label (on the complex, chain not told)). The experiment can be described thus: FRET; TR-FRET competitive displacement of thal-FITC.

Broadly, the Kd is the constant that tells how readily two partners part at equilibrium. The low end stands for higher affinity, the high end for lower affinity.

B1: UROD with C-terminal cyclic imide (recombinant UROD incubated with PCMT1) (natural protein)
chain: MEANGLGPQGFPELKNDTFLRAAWGEETDYTPVWCMRQAGRYLPEFRETRAAQDFFSTCRSPEACCELTLQPLRRFPLDAAIIFSDILVVPQALGMEVTMVPGKGPSFPEPLREEQDLERLRDPEVVASELGYVFQAITLTRQRLAGRVPLIGFAGAPWTLMTYMVEGGGSSTMAQAKRWLYQRPQASHQLLRILTDALVPYLVGQVVAGAQALQLFESHAGHLGPQLFNKFALPYIRDVAKQVKARLREAGLAPVPMIIFAKDGHFALEELAQAGYEVVGLDWTVAPKKARECVGKTVTLQGNLDPCALYASEEEIGQLVKQMLDDFGPHRYIANLGHGLYPDMDPEHVGAFVDAVHKHSRLLRQN
modifications: C-terminal cyclic imide on the C-terminal asparagine (N367), confirmed by mass spectrometry
Consider B1, for which the Kd amounted to 1500 nM.
